Reference: publication PMC3858272, “Construction and Application of Elastin Like Polypeptide Containing IL-4 Receptor Targeting Peptide” (PLoS ONE, 2013)

T1: IL-4Rα (CD124) (UniProt P24394 26-232)
T1 construct: interleukin-4 receptor alpha chain (CD124), recombinant protein bought from Sino Biological; No catalogue number is printed; also called IL-4 receptor; source: bought: Sino Biological
T1 sequence (looked up): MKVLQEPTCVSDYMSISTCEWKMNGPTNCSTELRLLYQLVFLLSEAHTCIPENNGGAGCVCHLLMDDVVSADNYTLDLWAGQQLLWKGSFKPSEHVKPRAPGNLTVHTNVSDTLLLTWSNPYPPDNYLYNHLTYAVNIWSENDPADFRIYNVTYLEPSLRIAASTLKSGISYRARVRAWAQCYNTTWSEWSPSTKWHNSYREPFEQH

T2: IL-4 receptor on H226 and MDA-MB-231 cancer cells (human (endogenous in H226 and …, UniProt P24394 26-825))
T2 construct: interleukin-4 receptor as expressed on the surface of human cancer cell lines; On cells the alpha chain may stand with other receptor chains; source: endogenous, on H226 and MDA-MB-231 cells
T2 sequence (looked up): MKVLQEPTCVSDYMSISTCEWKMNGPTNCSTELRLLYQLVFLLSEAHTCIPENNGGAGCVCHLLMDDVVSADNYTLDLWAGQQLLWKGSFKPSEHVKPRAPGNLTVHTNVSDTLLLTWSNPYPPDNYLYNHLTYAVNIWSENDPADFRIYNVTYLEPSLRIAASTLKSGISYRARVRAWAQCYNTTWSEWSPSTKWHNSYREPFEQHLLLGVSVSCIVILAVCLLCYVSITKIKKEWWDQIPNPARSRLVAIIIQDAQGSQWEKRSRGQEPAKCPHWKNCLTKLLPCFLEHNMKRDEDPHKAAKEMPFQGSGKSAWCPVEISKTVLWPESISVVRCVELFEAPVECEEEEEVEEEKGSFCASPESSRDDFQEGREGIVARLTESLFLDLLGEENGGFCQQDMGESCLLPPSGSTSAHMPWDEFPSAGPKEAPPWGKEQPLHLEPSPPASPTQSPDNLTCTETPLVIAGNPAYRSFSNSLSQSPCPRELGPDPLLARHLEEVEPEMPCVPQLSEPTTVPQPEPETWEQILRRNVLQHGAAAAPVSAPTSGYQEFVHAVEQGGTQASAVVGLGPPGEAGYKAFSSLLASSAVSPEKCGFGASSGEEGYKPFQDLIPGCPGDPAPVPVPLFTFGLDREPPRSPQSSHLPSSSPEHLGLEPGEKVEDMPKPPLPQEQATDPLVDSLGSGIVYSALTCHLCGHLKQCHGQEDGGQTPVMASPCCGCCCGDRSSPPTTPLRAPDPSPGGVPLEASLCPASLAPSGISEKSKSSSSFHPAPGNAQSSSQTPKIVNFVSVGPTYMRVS


How the values were obtained:
IL-4Rα (CD124) = biological target: T1, IL-4Rα (CD124); assay: SPR; IL-4Rα immobilised by amine coupling on a carboxymethyl dextran chip (2000±400 RU); AP1 peptide 3.125 to 50 µM, [AP1-V12]6 125 nM to 1 µM, [V14]6 1 µM flowed for 3 min at 25 µL/min; 25°C; kinetic fits with Scrubber 2; details: both partners purified
[1] = biological target: T2, IL-4 receptor on H226 and MDA-MB-231 …; assay: flow cytometry on cells; 10 µM Alexa 488-labelled polymer or peptide, 1 h at 4°C, on H226 and MDA-MB-231 cells (IL-4R highly expressed) after blocking with 2% BSA; H460 cells as IL-4R negative control; details: one partner purified

Row | Binder | koff (IL-4Rα (CD124)) | kon (IL-4Rα (CD124)) | fold cell attachment, H226 cells over H460 cells [1] | fold cell attachment, MDA-MB-231 cells over H460 cells [1]
1 | CRKRLDRN (peptide found earlier by phage display screening, termed AP1; also called free AP1 peptide) [AP1 peptide] | 0.17 s⁻¹ | 35 M⁻¹ s⁻¹ | – | –
2 | [AP1-V12]6 polymer, SGPG[VGRKRLDRNG(VGVPG)12]6WPC (designed binder, The vector's insert begins with an ATG; also called [AP1-V12]6 protein; targeted [AP1-V12]6 polymer; source: E. coli BL21 (DE3), purified (four rounds of inverse transition cycling)) SGPGVGRKRLDRNGVGVPGVGVPGVGVPGVGVPGVGVPGVGVPGVGVPGVGVPGVGVPGVGVPGVGVPGVGVPGVGRKRLDRNGVGVPGVGVPGVGVPGVGVPGVGVPGVGVPGVGVPGVGVPGVGVPGVGVPGVGVPGVGVPGVGRKRLDRNGVGVPGVGVPGVGVPGVGVPGVGVPGVGVPGVGVPGVGVPGVGVPGVGVPGVGVPGVGVPGVGRKRLDRNGVGVPGVGVPGVGVPGVGVPGVGVPGVGVPGVGVPGVGVPGVGVPGVGVPGVGVPGVGVPGVGRKRLDRNGVGVPGVGVPGVGVPGVGVPGVGVPGVGVPGVGVPGVGVPGVGVPGVGVPGVGVPGVGVPGVGRKRLDRNGVGVPGVGVPGVGVPGVGVPGVGVPGVGVPGVGVPGVGVPGVGVPGVGVPGVGVPGVGVPGWPC | 0.00125 s⁻¹ | 5810 M⁻¹ s⁻¹ | – | –
3 | Alexa 488-labeled [AP1-V12]6 (designed binder, Alexa Fluor 488-C5 maleimide on the C-terminal Cys residue, as m1; The labelled form of m1, used on cells (flow cytometry, confocal microscopy); also called Alexa-labeled [AP1-V12]6; targeted [AP1-V12]6 polymer; source: E. coli BL21 (DE3), purified (four rounds of inverse transition cycling), then labelled) SGPGVGRKRLDRNGVGVPGVGVPGVGVPGVGVPGVGVPGVGVPGVGVPGVGVPGVGVPGVGVPGVGVPGVGVPGVGRKRLDRNGVGVPGVGVPGVGVPGVGVPGVGVPGVGVPGVGVPGVGVPGVGVPGVGVPGVGVPGVGVPGVGRKRLDRNGVGVPGVGVPGVGVPGVGVPGVGVPGVGVPGVGVPGVGVPGVGVPGVGVPGVGVPGVGVPGVGRKRLDRNGVGVPGVGVPGVGVPGVGVPGVGVPGVGVPGVGVPGVGVPGVGVPGVGVPGVGVPGVGVPGVGRKRLDRNGVGVPGVGVPGVGVPGVGVPGVGVPGVGVPGVGVPGVGVPGVGVPGVGVPGVGVPGVGVPGVGRKRLDRNGVGVPGVGVPGVGVPGVGVPGVGVPGVGVPGVGVPGVGVPGVGVPGVGVPGVGVPGVGVPGWPC | – | – | 5.9 ± 1.6 fold | 5.6 ± 1.3 fold
